Assay results taken from patent US20070098718A1 (Novartis, published 2007).

B1: monoclonal antibody CHIR-5.9 (antibody, human IgG1, kappa, V domains shown)
VH: EVQLVQSGAEVKKPGESLKISCKGSGYSFTSYWIGWVRQMPGKGLEWMGIIYPGDSDTRYSPSFQGQVTISADKSISTAYLQWSSLKASDTAMYYCARGTAAGRDYYYYYGMDVWGQGTTVTVSS
VL: AIVMTQPPLSSPVTLGQPASISCRSSQSLVHSDGNTYLNWLQQRPGQPPRLLIYKFFRRLSGVPDRFSGSGAGTDFTLKISRVEAEDVGVYYCMQVTQFPHTFGQGTRLEIKR
notes: Fully human IgG1 kappa anti-human CD40 mAb; also called mAb CHIR-5.9; antibody of hybridoma 131.2F8.5.9
B2: monoclonal antibody CHIR-12.12 (antibody, human IgG1, kappa, V domains shown)
VH: QVQLVESGGGVVQPGRSLRLSCAASGFTFSSYGMHWVRQAPGKGLEWVAVISYEESNRYHADSVKGRFTISRDNSKITLYLQMNSLRTEDTAVYYCARDGGIAAPGPDYWGQGTLVTVSS
VL: DIVMTQSPLSLTVTPGEPASISCRSSQSLLYSNGYNYLDWYLQKPGQSPQVLISLGSNRASGVPDRFSGSGSGTDFTLKISRVEAEDVGVYYCMQARQTPFTFGPGTKVDIRR
notes: Fully human IgG1 kappa anti-human CD40 mAb; also called antibody of hybridoma 153.8E2.D10.D6.12.12

Molecular target: T1, Recombinant soluble CD40-his (human, UniProt P25942 21-193, limits assumed)
T1 construct: not shown: his tag
Assay: binding affinity to human CD40 (Biacore per paragraph 64)

T1 sequence (P25942 21-193 limits assumed): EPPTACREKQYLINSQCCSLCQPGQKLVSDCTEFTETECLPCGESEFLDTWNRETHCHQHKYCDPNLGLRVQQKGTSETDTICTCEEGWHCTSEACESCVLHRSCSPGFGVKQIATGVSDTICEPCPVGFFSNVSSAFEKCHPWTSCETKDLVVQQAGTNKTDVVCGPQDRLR

| Binder | Kd [nM] |
| --- | --- |
| B1 | 12 |
| B2 | 0.5 |
